Legend:
Saccharomyces cerevisiae [1] = experiment: protein stability index of tFT-peptide fusion in wild type (PSI (0-1 scale)); higher = more stable (slower turnover); conditions: genetic background: wild type
Experimental: (§1)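 MPS profiling in S. cerevisiae of two library types built from selected 12-aa C-degron peptides (IN1, IN2, LN1, LN3, VN2, R1-R5, W1-W3, Atg1 and Rpa12 C-termini): saturation mutagenesis libraries and C-terminal +1 capping libraries (13 aa). Each peptide is fused to the C-terminus of a sfGFP-mCherry timer, after a GGGS linker. Cells are FACS-sorted into 8 mCherry/sfGFP bins and sequenced. PSI runs from 0 (unstable) to 1 (stable), measured once in wild type and in the das1Δ or doa10Δ background.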

Saccharomyces cerevisiae [2] = experiment: protein stability index of tFT-peptide fusion in deletion strain of DAS1 (PSI (0-1 scale)); higher = more stable (slower turnover)
Experimental: as §1
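Throughout, for protein stability index of tFT-peptide fusion in deletion strain of DAS1: PSI is a weighted mean of each variant's read distribution over the sorted stability bins, computed only for variants having over 10 reads in total.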
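Throughout, for protein stability index of tFT-peptide fusion in wild type: PSI derived as read-weighted mean over the 8 sorting bins, only variants exceeding 10 total reads kept, mCherry placed adjacent to the peptide and sfGFP distal.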

Sequence | protein stability index (Saccharomyces cerevisiae [1]) | protein stability index (Saccharomyces cerevisiae [2])
FAMRWTFRYWVN | 0.0656 | 0.476
LVQYLSCVACIN | 0.0238 | 0.18
VRGAVGGWRLVGH | 0.668 | 0.671
KKHKKGQKQAIN | 0.57 | 0.6
LVVYLSCVACIQ | 0.0107 | 0.0327
PSLAASFWDVVG | 0.694 | 0.708
KKHKKGQWQKIN | 0.106 | 0.556
LVVGLSCVACIN | 0.159 | 0.215
KKHKPGQKQKIN | 0.143 | 0.607
LPVYLSCVACIN | 0.055 | 0.19
RLIQPAPVQFLN | 0.0579 | 0.612
VRGAVGGWRLQG | 0.153 | 0.649
RLIQPLDVQFLN | 0.225 | 0.617
RLIQPLEVQFLN | 0.163 | 0.665
RLIIPLPVQFLN | 0.018 | 0.551
LKILAQKMNHQN | 0.229 | 0.667
RKIQPLPVQFLN | 0.0533 | 0.616
LCVYLSCVACIN | 0.0138 | 0.0253
PSLAASFWRHVG | 0.181 | 0.704
RLIQPLPQQFLN | 0.0631 | 0.642
LKILRQKMNHQK | 0.666 | 0.682
LKILRQKMNHQND | 0.675 | 0.724
PDLAASFWRVVG | 0.151 | 0.708

Sequence | protein stability index (Saccharomyces cerevisiae [1]) | protein stability index (Saccharomyces cerevisiae [2])
ARWRVGGWRGAS | 0.557 | 0.701
LKILRQKMNHQNT | 0.671 | 0.692
ARWRVGLWRGAE | 0.644 | 0.685
LKILRQKMNHQR | 0.67 | 0.669
KKHKKGQKFKIN | 0.158 | 0.572
FSMRWQFRYWVN | 0.0795 | 0.53
VRGAVGGERLVG | 0.65 | 0.698
VRGAVGGWRLVY | 0.654 | 0.636
VRGAVGGWRLVM | 0.321 | 0.661
KKHKKGQMQKIN | 0.209 | 0.626
KNHKKGQKQKIN | 0.121 | 0.61
LKVLRQKMNHQN | 0.177 | 0.675
VRGAVGGWFLVG | 0.626 | 0.673
VRGAVGGCRLVG | 0.633 | 0.692
FSMRWTFRYWVNH | 0.106 | 0.559
LVVYLSCVACAN | 0.0124 | 0.0251
LVVYLSCAACIN | 0.0321 | 0.166
VRGAVGGWRLVE | 0.726 | 0.663
TLIQPLPVQFLN | 0.102 | 0.576
LVVYLSCVHCIN | 0.0533 | 0.251
CGSCGYKFRTNN | 0.265 | 0.687
VRMAVGGWRLVG | 0.132 | 0.672
LVVYQSCVACIN | 0.216 | 0.339

Sequence | protein stability index (Saccharomyces cerevisiae [1]) | protein stability index (Saccharomyces cerevisiae [2])
FSDRWTFRYWVN | 0.095 | 0.605
VRGAVGGWRLLG | 0.164 | 0.658
FSMRLTFRYWVN | 0.0555 | 0.401
KKHKKEQKQKIN | 0.0895 | 0.678
CTSCGYKYRTNN | 0.295 | 0.674
RLIVPLPVQFLN | 0.0525 | 0.607
LKHLRQKMNHQN | 0.175 | 0.712
WLIQPLPVQFLN | 0.0761 | 0.643
RLIQPLPVQCLN | 0.173 | 0.478
LKILRQKMNMQN | 0.281 | 0.641
LVVYNSCVACIN | 0.245 | 0.406
KKHKKGQKQPIN | 0.637 | 0.587
FSMRWTFRYIVN | 0.202 | 0.475
VRGAVGGWNLVG | 0.198 | 0.679
CTSCGYKFRLNN | 0.35 | 0.701
LVVYLSCVACINI | 0.0206 | 0.0321
TKHKKGQKQKIN | 0.118 | 0.639
CTSCGMKFRTNN | 0.304 | 0.715
ARPRVGLWRGAS | 0.65 | 0.681
FSMRWTFRYWVNF | 0.076 | 0.523
PSLAASPWRVVG | 0.519 | 0.683
LKLLRQKMNHQN | 0.208 | 0.682
ARWRVGLWRGAK | 0.669 | 0.659

Sequence | protein stability index (Saccharomyces cerevisiae [1]) | protein stability index (Saccharomyces cerevisiae [2])
CTSCGYKFRTNM | 0.156 | 0.731
KKHKKYQKQKIN | 0.0518 | 0.587
LVVYLSCVACID | 0.0162 | 0.0175
LMVYLSCVACIN | 0.0204 | 0.0607
KKHLKGQKQKIN | 0.0828 | 0.608
CTSCGYKFCTNN | 0.377 | 0.698
KKHKKGQRQKIN | 0.0819 | 0.599
FSMRWTFRYWVNS | 0.194 | 0.542
FKILRQKMNHQN | 0.168 | 0.672
ARWSVGLWRGAS | 0.448 | 0.692
PSLAASFWRVVGI | 0.667 | 0.696
FSMRWTFRGWVN | 0.313 | 0.605
FSMRWTCRYWVN | 0.0505 | 0.515
KKHQKGQKQKIN | 0.0868 | 0.597
CTSCGYKFRTNNA | 0.698 | 0.697
FSMRWTFEYWVN | 0.0782 | 0.448
VRGAVGGWRLVGL | 0.665 | 0.675
PHLAASFWRVVG | 0.148 | 0.698
ARWRVGLWRGCS | 0.266 | 0.683
VRGLVGGWRLVG | 0.154 | 0.678
